The record followed here is patent US20260139035A1 (published 2026).

The test deals with RBD of the SARS-CoV-2 spike protein (Cayman Chemical kit #502050) (UniProt P0DTC2 319-541).

Residue numbers refer to the chain shown, from its start.

B1: 3-1 antibody (antibody, V domains shown)
VH: EVQLVQSGAEVKKPGESLKISCKGSGYIFTNYWIGWVRQMPGKGLEWMGIINPRDSDTRYSPSFQGQVTISTDKSINTAYLQWSSLKASDTAMYYCARQQGGFGDLGAYNWFDPWGQGTLVTVSS
VL: not shown
For B1, it took 0.031 µg/mL to reach half-maximal inhibition (IC50).

B2: 4-66 antibody (antibody, V domains shown)
VH: EVQLVESGGGLVQPGGSLRLSCAASGIIVSRNYMTWVRQAPGKGLEWVSVIYSGGTTYYADSVKGRFTTSRDDSKNTLYLQMNSLRGDDTAVYYCARDPPHRRGSYWGQGTLVTVSS
VL: DILMTQSPSSLSASVGDRVTITCQASQDINKYLNWYQQKPGKAPKLLIYDASNLETGVPSRFSGSGSGTDFSFTISSLQPEDVATYYCQQSDNLPPTFGQGTNVEIK
Turning to B2, the midpoint of inhibition, the IC50, lay at 0.015 µg/mL.

B3: 1-58 antibody (antibody, V domains shown)
VH: QVQLVQSGAEVKKPGASVRVSCKASGYSFTASYMHWVRQAPGQGLEWMAIINPGDDNTSYAQKFQGRVTLTRDTSTTTVYMELRSLRSEDTAVYYCTRSTRDYVWGNYRYTPGYYLDYWGQGTLVTVSS
VL: DIRMTQSPSSLSASVGDRVTITCRASQTISNYLNWYQQKPGKAPKLLIYAASSLQSGVPSRFSGSGSGTDFTLTISSLQPEDFATYYCQQGYITPITFGQGTRLEIK
Regarding B3, the IC50 – broadly, the concentration that gives 50% inhibition – is 0.028 µg/mL.

B4: 1-44 antibody (antibody, V domains shown)
VH: EVQLVESGGGVVQPGSSLRLSCAASGFTFRSHAMHWVRQAPGKGLEGVAVIWYDGSNKYYADSVKGRFTISRDNSKNTLYLQMNSLRAEDTAVYYCAREGIAVPGNGADAFDIWGQGTMVTVSS
VL: B3 VL with R3Q, T28S, S30G, Y32F, G91T, I93S, I96Y, R103K
B4 had a half-maximal inhibitory concentration (IC50) of 0.013 µg/mL.
